# Source: article doi:10.1101/2023.12.01.569227 (bioRxiv, 2023)
# Where a chain is given by its changes, count along the chain named.
# B1: Seq8 (VHH)
# VHH: QVQLQESGGGLVQAGGSLRLSCAASGYGFSEYAMGWFRQAPGKEREFVATISWSGRSTYYTDSVKGRFTISRDNAKNTVYLQMNSLKPDDTAVYYCARAGWGVVVSEWDYDYDYWGQGTQVTVSS
# B2: Seq11 (VHH)
# VHH: B1 VHH with Y27R, G28K, S57L, R98G, W101Y
# B3: Seq12 (VHH)
# VHH: B1 VHH with Y27R, G28T, R56G, T58K, R98A, W101L, V103T
# B4: Seq1 (VHH)
# VHH: B1 VHH with Y27R, G28T, Y32T, S57G, R98Y, W101Y
# B5: Seq2 (VHH)
# VHH: B1 VHH with Y27R, R56G, S57G, W101F, V104W
# B6: Seq3 (VHH)
# VHH: B1 VHH with Y27R, G28M, Y32T, S57G, R98G, W101Y, V104Y
# B7: Seq4 (VHH)
# VHH: B1 VHH with Y27R, G28S, S57A, W101Y
# B8: Seq5 (VHH)
# VHH: B1 VHH with Y27R, G28M, R56K, S57G, W101F, V104Y
# B9: Seq6 (VHH)
# VHH: B1 VHH with Y27R, G28L, R98K
# B10: Seq7 (VHH)
# VHH: B1 VHH with Y27L, G28K, Y32T, W101Y
# Molecular target: SARS-CoV-2 RBD (SARS-CoV-2, Wuhan-Hu-1, UniProt P0DTC2, biotinylated with an EZ-Link NHS-PEG4 biotinylation kit)
# Experiment: BLI
Binder,fold improvement in binding affinity over VHH-72 [fold],binding result
B1,> 2,–
B2,> 2,–
B3,–,binds
B4,> 2,–
B5,> 2,–
B6,> 2,–
B7,> 2,–
B8,> 2,–
B9,> 2,–
B10,> 2,–
